Experimental data published in paper PMC7094590.

Biological target: wild-type HCoV-229E Nsp9 (non-structural protein 9 of human coronavirus 229E) (human coronavirus 229E)
Assay: crystal structure

wild-type HCoV-229E Nsp9 (non-structural protein 9 of human coronavirus 229E) (natural protein)
stoichiometry N: 2
